A short description of this data set: yeast display, Sf9 membrane polyspecificity reagent, FACS + sequencing; frameworks hold sequencing errors. The procedure, abridged: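 Synthetic nanobody libraries on Saccharomyces cerevisiae BJ5465 were galactose-induced for 36–48 hours, stained 1 hour at 4 °C with 10% biotinylated, detergent-solubilized Sf9 membrane reagent and enriched on streptavidin microbeads. FACS then separated cells into low and high (top ~1%) gates by anti-HA (expression) and streptavidin (reagent binding) fluorescence. Genes were colony-PCR amplified, MiSeq 2 × 250 sequenced and CDR-length filtered. A clone's polyreactivity label is that of its gate of origin.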
With “QVQLVESGGGLVQAGGSLRLSCAASGRIFFVYAMGWYRQAPGKERELVASITGGGSTNYADSVKGRFTISRDNAKNTVYLQMNSLKPEDTAVYYCAADIHSTRVFPEYPSGYDYWGQGTQVTVSS”, the “polyreactivity (PSR sort gate)” value is recorded as “low polyreactivity”.

With “QVQLVESGGGLVQAGGSLRLSCAASGSIFDVYAMGWYRPAPGKERELVATISYGDSSTYYADSVKGRFTISRDNAKNTVYFQMNSLKPEDTAVYYCAADYLTAPRWRLLGEMEYWGQGTQVTVSS”, the “polyreactivity (PSR sort gate)” value is recorded as “low polyreactivity”.

For “QVQLVESGGGLVQAGGSLRLSCAASGFTFAGNAMGWYRKAPGKERELVAGISRRGGNTYYADSVKGRFTISRDIAKNTVYLQMNSLKPEDTAVYYCARYSSSYWGQGTQVTVSS”, the “polyreactivity (PSR sort gate)” value is recorded as “high polyreactivity”.

For “QVQIVESGGGLVQAGGSLRLSCPASGSIFPQYAMGWSRQAPRKERELVAGISGSGGGTYYADSVKGRITILRDNAKNNVFLQMNSVKPEETAVYYCNALYAPYGWFYGLYDYGGQGTQVTVSS”, the “polyreactivity (PSR sort gate)” value is “low polyreactivity”.

Consider “QVQVVESGGGLVQAGGSLRLSCAASGSTFKKYAMGWYRQAPGKERELVAAISWSGGSTYYADSVKGRFTISRDNAKNTVYLQMNSLKPEDTAVYYCAAYPYTYYLDRYEYWGQGTQVTVSS”, for which the “polyreactivity (PSR sort gate)” value is on record as “high polyreactivity”.

“QVQLEESGGGIVQAGGSLRLSCAASGSIFGVYAMGMYRQAPGKERELVAVISRGGTYYADSVKGRFTISRDNAKNTVYLQMHSLKPEDTAVYYCAARTRKSTVFYGLDYWGQGTQVTVSS”: the “polyreactivity (PSR sort gate)” value is listed as “high polyreactivity”.

With “QVQLVESGGGLVQAGGSLRLSCAASRTIIASYAMGSYRQAPGKERELVAAISRSGGRTYYADSVKGRFTISRDNAQNTVYLQMNSLKPEDSAVYYCNVLQPQSSDWLITYDYWGQGTQVTVSS”, the “polyreactivity (PSR sort gate)” value was “high polyreactivity”.

For “QVKLVESGGGLVQAGGSLRLSCAASGRTISGNAMGWYRQAPGKERELVATISGRGGSTYYADSVKGSFTISRDNAKNTVYLQMTSLKPEDTAVYYCAKRLYSRRPLMDSWGQGTQVTVSS”, the “polyreactivity (PSR sort gate)” value was “high polyreactivity”.

As to “LVQLQESGGGLVQAGGSLRLSCAASGTISPGGYMGWYRQAPGKERELVASINVGGSTNYADSVKGRFTISRDNAKNTVYLQMNSLKPEDTAVYYCAVWGRNRLQLSYWGQGTQVTVSS”, the “polyreactivity (PSR sort gate)” value was “low polyreactivity”.

Take “QVQLVESGGGLVQAGGSLRLSCAASGRIFYAYTMGWYRQAPGKERELVAAISGSGSTYYADSVKGRFTISRDNAKNTVYLQMNSLKPEDTAVYYCAADVTGGRKYDYWGQGTQVTLSS”: the “polyreactivity (PSR sort gate)” value is “low polyreactivity”.

For the sequence “QVQLVESGGALVQAGGSLRLSCAASGFTLSAYAKGWYRQAPGKERELVAGISYTGGRTYYADSVKGRFTISRDNAKNTVYLQMNSLKPEDTAVYYCNKAWSGYYKYGYWGQGTQVTVSS”, the “polyreactivity (PSR sort gate)” value was “low polyreactivity”.

On to “QVQLVESGGGLVQAGGSLRLSCAASGFIYGTYAMGWYRQAPGKEREFVAAITRSGSSTYYADSVKGRFTISRDNAKNTVYLLMNSLKPEDTAVYYCAADLTRGRFRYYYWGLGTQVTVSS”, for which the “polyreactivity (PSR sort gate)” value is listed as “high polyreactivity”.

For “QVQLVESGGGLVQAGGSLRLSCAASGPTFRYYAMGWYRQAPGKERELVATITGSGGSTYYADSVKGRFTISRDNAKNTVYLQMNSLKPEDTAVYYCNARKVRYPYRWYDYWGQGTQVTVSS”, the “polyreactivity (PSR sort gate)” value is “high polyreactivity”.

Consider “QVQLVESGGGLVQAGGSLRLSCAASGSTFSYNAMGWYRQAPGKERELVAAITSSGSSTYYADSVKGRFTISRYNAKNTVYLQMNSLKPEDTAVYYCAATLYNTEDDYWGQGTQVTVSS”, for which the “polyreactivity (PSR sort gate)” value is on record as “low polyreactivity”.

Turning to “EVQLVESGGGLVQAGGSLRLSCAASGGTFRYYAMGWSRQAPGKERELVASSSSGGSTNYADSVKGRFTISRDNAKNTVYLQMNRLKPEDTAVYYCARRRFYYGHHPGSSWYDYWGQGTQVSVSS”, the “polyreactivity (PSR sort gate)” value is “low polyreactivity”.

As to “QVQLVDSGGGLVQAGGSLRLSCAASGRIFYQNAMGWYRQAPGKETELVADNSSGGSTYYADSVKGRFTISRDNAKNTVYLQMNSLKPEDNAVYYCNTPSGPGTVGSYRRKWYGYWGQGTQLTVSS”, the “polyreactivity (PSR sort gate)” value is “low polyreactivity”.

Regarding “QVQLVESGGGLVQAGGSLRLSCAASGYIFFFYAMGWYRQAPGKERELVASITYRGGSTYYADSVKGRFTISRDNSKNTVYLQMNSLKPEDTAVYYCAADVRASRFDYWGQGTQVTVSS”, the “polyreactivity (PSR sort gate)” value is recorded as “low polyreactivity”.

Regarding “QVQLVESGGGLVQAGGSLRLSCAASGFTFEWYTMGWYRQAPGKERELVADISGDGSTYYADSVKGRFTISRDNAKNTVYLQMNSLKPEDTAVYYCAASFWGIAMGYWAQGTQVTVSS”, the “polyreactivity (PSR sort gate)” value was “high polyreactivity”.

Turning to “QVQLVESGGGLVQAGGSLRLICAASGLTFVTYAMGWYRQAPGKERELVAAITWSVGGTTYYADSVKGRFTISRDNAKNTVYLQMNSLKPEDTAVYYCAAESYSYYYDYYYWGQGTQVTVSS”, the “polyreactivity (PSR sort gate)” value was “high polyreactivity”.

As for “QVQLVESGGGLVQAGGSLRLSCAASGITFSYNAMGWYRQAAGKERELVAAITWSGDSTYYADSVKGRFTISRDNAKNTVYLQMNSLKPEDTAVYYCNAVPSQHDEFDYWGQGTQVTVSS”, the “polyreactivity (PSR sort gate)” value was “low polyreactivity”.

“QVQLVESGGGLVQAGGSLRLSCAASDTPSSSMLMGWYRQAPGKERQLVAAISGSDGTTYYADSVKGRFTISRDNAKNTVYLQMNSLKPEDTAVYYCAADDRVDSGYIKDDYWGQGTQVTVSS”: the “polyreactivity (PSR sort gate)” value was “low polyreactivity”.

Regarding “QVQLVESGGGLVQAGGSLRLSCAAYGRIFGYYAMGWYRQAPGKEREFVATISRSGGRTYYADSVKGRFTISRDNAKNTVYLQMNSLKPEDTAVYYCAKGVQFGSKTTFWYDYWGQGTQVTVSS”, the “polyreactivity (PSR sort gate)” value is “high polyreactivity”.

Take “QVQLVESGGGLVQAGGSLRLSCAASGRTFRWYAMGWYRQAPGKERELVAAISQSGGSTYYADSVKGRFTISRDNAKNSVYLQMNSLKPVDTAVYYCAKVTYRGYYSWGQGTQLTVSS”: the “polyreactivity (PSR sort gate)” value is reported as “high polyreactivity”.

For “QVQLVESGGGLVQAGGSLRLSCAASGSTFFRYAMGWYRPAPGKEREFVAAISKRGGSTHYADSVKGRFTISRDNAKNTVYLQMNSLKPEDTAVYYCAASSFTSSYNFWGQGTQVTVSS”, the “polyreactivity (PSR sort gate)” value is listed as “high polyreactivity”.

As for “QVQLVESGGGIVQAGGSLRLSCAASGSTLYLYVMGWYRQAPGKERELVAVISSSSGRTYYADSVKGRFTISRDNAKNTVYLQMNSLKPEDTAVYYCAADNYVGYHWYNYWGQGTQVTVSS”, the “polyreactivity (PSR sort gate)” value is reported as “high polyreactivity”.

As for “QVQLVESGGGLVQAGGSLRLSCAASGSTFPTNAMGWYRQAPGKERELVAGITEGGSSTYYADSVKGRFTISRDNAKNTVYLQMTSLKPEDTAVYYCAAAARAGLKRYYYWGQGTQVTVSS”, the “polyreactivity (PSR sort gate)” value is “high polyreactivity”.

With “QDQLVESGGGLVQAGGSLRLSCAASVFTFRYYAMGWYRQAPGKEREFVATISWSGGSTYYADSVKGRFTISRDNAKNTVYLQMNSLKPEDTAVYYCAAGRVGTTTLEFYYCGQGTQVTVSS”, the “polyreactivity (PSR sort gate)” value was “high polyreactivity”.

For “QVQLVESGGGLVQAGGSLRLSCAASGSTFTLNAMGWYRQAPGKERELVAAITSGGRTKYADSVKGRFTISRDNAKNTVYLQMNSLKPEDTAVYYCAATFAGGYGYWGQGTQVTVSS”, the “polyreactivity (PSR sort gate)” value is on record as “high polyreactivity”.

As for “QDQLVESGGGLDQAGGSLRLSCAASGNIFYSYAMGCYRQAPGKERELVAAISSSGGRTYYADSVKGRFTISRDNAKNTVYLQMNSLKPEDTELYYCNAYVQVMRYLFGRPTVYPYDYWGQGTQVTVSS”, the “polyreactivity (PSR sort gate)” value is given as “high polyreactivity”.

On to “QVQLVESRGGLVQAGGSLRLSCAASGRINSRYAMGLSRQEPGKERELVAAISWNGGSTYYADSVKGRFTISRDNAMNTVYFQMNSLKPEDTAVYYCAAYRPGPYAAYGYWGQGTQVTVSS”, for which the “polyreactivity (PSR sort gate)” value is “high polyreactivity”.

Turning to “QVQLVESGGGLVQAGGSLRISCAASGSTFANYSMGWYRQAPGKERELVAVISVRGGSTYYADSVKGRFTISRDNAKNTVYLQMNSLKPEDTAVYYCAADASGPRRYDSWGQGTQVTVSS”, the “polyreactivity (PSR sort gate)” value is on record as “high polyreactivity”.

Take “QVQLVESGGGLVQAGGSLRLSCAASGRIFTYYTMGWYRQAPGKERELVAAISYSGRTYYADSVKGRFTISRDNAKNTVYLQMNSLKPEDTAVYYCNAARPRGYGFDYWGQGTQVTVSS”: the “polyreactivity (PSR sort gate)” value is “high polyreactivity”.

On to “QVHLVESGGGLVQAGGSLRLSCAASGSNCTYYAMGWYRQAPGKERELVAAIDFSGASTSYADSVKGRFTISRDNAKNTVYFQMNSLKPEDTAVYYCAAVLYWYPPYYYWGQGTQVTVSS”, for which the “polyreactivity (PSR sort gate)” value is given as “low polyreactivity”.

With “QVQLVESGGGLVQAGGSLRLSCAASGSIFYIYAMGWYRQAPGKERELVAGINGGGASTYYADSVKGRFTISRDNAKNTVYLQMNSLKPEDTAVYYCAADIRYLGEYWGQGTQVTVSS”, the “polyreactivity (PSR sort gate)” value is reported as “low polyreactivity”.

In the case of “QVQLVESGGGLVQAGGSLRLSCAASGTFSPYAMGWYRQAPGKESELVAVITSNTGRTYADSVKGRFTISRDNAKKTVYLQMNSLKPEDTAVYYCAARSTYRHWYRTGSRFDYWGQGTQVTVSS”, the “polyreactivity (PSR sort gate)” value was “low polyreactivity”.

As to “QVQLVESGGGLVQAGGSRRLSCAGSGSTVTGYAMGWYRQAPGKDRELVAAISSRGGSTYYADSVKGRFTISRDNAKTTVYLQMNSLKPEDTAGYYCATSYKSEQYHGKPFYYWGQGTQVTVSS”, the “polyreactivity (PSR sort gate)” value is reported as “high polyreactivity”.

Regarding “QVQLVESGGGLFQAGGSLRLSCAASGSTFGSYAMGWYRQAPAKERELVADISSRGASTYYADSVKGRFTISRDNEKNTVYLEMISLKPEDTAVYYCNTTGEYYDYWGHGTQVTVSS”, the “polyreactivity (PSR sort gate)” value is “low polyreactivity”.

Turning to “QVQLVESGGGLVQAGGSLRLSCAASGSIFGKYAMGWYRQAPGKERELVAAISRSGSRTFYADSVKGRFTISRDNAKNTVYLQMNSLKPEDTAVYYCNALSGDSYSYYGYDSWGQGTQVTVSS”, the “polyreactivity (PSR sort gate)” value was “high polyreactivity”.

On to “QVQLVESRGGLVQAGGSLRLRCAASGSTFGYYAMGWYRQAPGKERELVAGISSGGTTKYADSVKGRFTISRDNEKNTVYLQMNSLKPEDTAVYYCAATVRVYDYWGQGTQVTLSS”, for which the “polyreactivity (PSR sort gate)” value is “high polyreactivity”.

On to “QVQLVESGGGLVQAGGSLRLSCAASGSIFYRNAMGWYRQAPGKERELVAAISSDGSTNYADSVKGRFTISRDNAKNTVYLQMNSLKPEDTAVSYCAAPWTQILDYWGQGTQVTVSS”, for which the “polyreactivity (PSR sort gate)” value was “low polyreactivity”.

“QVQLVESGGGLVQAGGILRLSCAASGSIFYAYAMGWYRQAPGKERELVASITWSGASTYYADSVKGRFTISRDNAKNTVYLQMNSLKPEDTAVYYCAATDQKLSLDYSSYEYWGQGTQVTVSS”: the “polyreactivity (PSR sort gate)” value is listed as “low polyreactivity”.
